{"source": "paper PMC6487263", "about": "“Kinetic and structural analysis of human ALDH9A1” (Bioscience Reports, 2019)", "biological_target": "the molecule itself", "test": "crystal structure; three crystal forms (P2(1)2(1)2, P2(1), C2) at 2.5, 2.9 and 2.3 Å; co-crystallised with 50 mM NAD+ with or without 10 mM TMABA, PEG 4000, 0.1 M sodium citrate pH 5.6; apoform seen; tetramer as dimer-of-dimers"}
{"protein": "human ALDH9A1 (enzyme, UniProt P49189 1-494, looked up, Human ALDH9A1, a protein of 494 amino acids; the ORF was amplified with gene-specific primers and ligated into pCDFDuet (BamHI, XhoI); Monomer of 55.4 kDa including the His-tag; cloning into the BamHI site of pCDFDuet would place a His6 tag at the N-terminus (surmised); Residues 232-256 are disordered in the crystal structures; also called HsALDH9A1; TMABALDH; source: E. coli (T7 express; …)) MSTGTFVVSQPLNYRGGARVEPADASGTEKAFEPATGRVIATFTCSGEKEVNLAVQNAKAAFKIWSQKSGMERCRILLEAARIIREREDEIATMECINNGKSIFEARLDIDISWQCLEYYAGLAASMAGEHIQLPGGSFGYTRREPLGVCVGIGAWNYPFQIASWKSAPALACGNAMVFKPSPFTPVSALLLAEIYSEAGVPPGLFNVVQGGAATGQFLCQHPDVAKVSFTGSVPTGMKIMEMSAKGIKPVTLELGGKSPLIIFSDCDMNNAVKGALMANFLTQGQVCCNGTRVFVQKEILDKFTEEVVKQTQRIKIGDPLLEDTRMGPLINRPHLERVLGFVKVAKEQGAKVLCGGDIYVPEDPKLKDGYYMRPCVLTNCRDDMTCVKEEIFGPVMSILSFDTEAEVLERANDTTFGLAAGVFTRDIQRAHRVVAELQAGTCFINNYNVSPVELPFGGYKKSGFGRENGRVTIEYYSQLKTVCVEMGDVESAF", "values": [{"measurement": "stoichiometry N", "result": 4}]}
